Measured values as given in paper PMC6532066 (Nature, 2019).
Where two headings read alike, the source gives them in different places.

T1: LptG (E. coli K-12, UniProt P0ADC6)
T1 sequence: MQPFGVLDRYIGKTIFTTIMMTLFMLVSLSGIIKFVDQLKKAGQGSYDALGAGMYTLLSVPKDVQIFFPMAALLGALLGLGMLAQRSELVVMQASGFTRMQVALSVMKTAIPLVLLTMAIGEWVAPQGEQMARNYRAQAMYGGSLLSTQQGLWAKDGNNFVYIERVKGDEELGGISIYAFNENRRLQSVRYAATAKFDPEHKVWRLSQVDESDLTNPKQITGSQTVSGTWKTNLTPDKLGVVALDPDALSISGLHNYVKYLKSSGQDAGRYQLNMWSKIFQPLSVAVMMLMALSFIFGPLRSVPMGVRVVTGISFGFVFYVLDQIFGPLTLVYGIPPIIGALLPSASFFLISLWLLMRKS

T2: LptF (E. coli K-12, UniProt P0AF98)
T2 sequence: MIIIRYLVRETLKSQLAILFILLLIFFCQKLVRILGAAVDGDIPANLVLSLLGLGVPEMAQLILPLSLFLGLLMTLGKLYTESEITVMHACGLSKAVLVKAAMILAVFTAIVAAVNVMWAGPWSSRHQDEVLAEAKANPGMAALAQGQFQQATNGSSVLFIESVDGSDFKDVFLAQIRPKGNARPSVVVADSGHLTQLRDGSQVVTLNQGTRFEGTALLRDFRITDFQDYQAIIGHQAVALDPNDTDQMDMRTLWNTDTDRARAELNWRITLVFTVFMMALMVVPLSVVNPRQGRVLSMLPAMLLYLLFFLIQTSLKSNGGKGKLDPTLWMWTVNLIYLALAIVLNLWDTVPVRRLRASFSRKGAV


Assays:
Test in all cases: cryo-EM structure
LptG = molecular target: T1, LptG
LptF [1] = molecular target: T2, LptF
LptF [2] = molecular target: T2, LptF; remark: listed apart in the source

Row | Binder | binding result (LptG) | binding result (LptF [1]) | binding result (LptF [2])
1 | LptB (natural protein) MATLTAKNLAKAYKGRRVVEDVSLTVNSGEIVGLLGPNGAGKTTTFYMVVGIVPRDAGNIIIDDDDISLLPLHARARRGIGYLPQEASIFRRLSVYDNLMAVLQIRDDLSAEQREDRANELMEEFHIEHLRDSMGQSLSGGERRRVEIARALAANPKFILLDEPFAGVDPISVIDIKRIIEHLRDSGLGVLITDHNVRETLAVCERAYIVSQGHLIAHGTPTEILQDEHVKRVYLGEDFRL | binds | binds | –
2 | LptC (natural protein) MSKARRWVIIVLSLAVLVMIGINMAEKDDTAQVVVNNNDPTYKSEHTDTLVYNPEGALSYRLIAQHVEYYSDQAVSWFTQPVLTTFDKDKIPTWSVKADKAKLTNDRMLYLYGHVEVNALVPDSQLRRITTDNAQINLVTQDVTSEDLVTLYGTTFNSSGLKMRGNLRSKNAELIEKVRTSYEIQNKQTQP | – | – | binds
